In the nanobody polyreactivity screen of Harvey et al. (2022):

assay: yeast display, Sf9 membrane polyspecificity reagent, FACS + sequencing; frameworks hold sequencing errors
In short: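 Galactose-induced (36–48 hours) yeast carrying a synthetic nanobody display library were exposed to 10% biotinylated, detergent-solubilized Sf9 membrane reagent at 4 °C for 1 hour. FACS followed streptavidin microbead enrichment, using low and high (top ~1%) gates for expression (anti-HA) and reagent binding (streptavidin). Colony PCR, MiSeq 2 × 250 sequencing and CDR-length filtering followed. Labels for polyreactivity reflect the gate of origin.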

Q: For “QVQLVESGGGLLQAGGSLRLSCAASGFTFGGNAMGWYRQAPGKERELVAAITSRGGSTYYADSVKGRFTISRDNAKNTFYLQMYSLKPEDTAVYYCAAQFTTRYDWGQGTQVTVSS”, which “polyreactivity (PSR sort gate)” value is on record?
A: high polyreactivity

Q: For “QVQLVESGGGLLQAGGSLRLSCAASGFTFRVNAMGWYRQAPGKERELVASITVSDARTYYADSVKGRFTISRDNAKNTVYLQMNSLKPEDTAVYYCAADYKGAFTTDWSSEYEYWGQGTQVTVSS”, which “polyreactivity (PSR sort gate)” value is on record?
A: low polyreactivity

Q: With “QVQLVESGGGLLQAGGSLRLSCAASGFTFSTNAMGWYRQAPGKERDLVAAITWRGGSTYYADSVKGRFTISRDIAKKTVYVQLNSLKPEDTAVYYCAGRSRGSHVSYYKKFDYWGQGTHVTVSS” as the sequence, how does the “polyreactivity (PSR sort gate)” value read?
A: low polyreactivity

Q: For “QVQLVESGGGLLQAGGSLRLSCAASGFTVYRYAMGWYRPEPGKERELGAAITWSGGSTYYADSVKGRFTISRDNAKKSVYFQMNSLKPEDTAVYYCAKETAPSRLPYGYWGQGTQVNVSS”, which “polyreactivity (PSR sort gate)” value is on record?
A: low polyreactivity

Q: With “QVQLVESGGGLLQAGGSLRLSCAASGHTLYRYARGWYRQAPGKERELVAAITSRGGSTFYADSVKGRFTISRDTAKNSVYLQMNRLQPEDTAVYYCNTARGTAPAHDYWGQGTQVTVSS” as the sequence, how does the “polyreactivity (PSR sort gate)” value read?
A: low polyreactivity

Q: Which “polyreactivity (PSR sort gate)” value does the source give for “QVQLVESGGGLLQAGGSLRLSCAASGITFERNGMGWYRQAPGKERELVAAIRSGGSTYYADSVKGRFTISRDNAKNTVYLQMNTLKPEDTGVYYCAAVTQGGYTYLGDYWGQGTQVTVSS” here?
A: low polyreactivity

Q: Which “polyreactivity (PSR sort gate)” value does the source give for “QVQLVESGGGLLQAGGSLRLSCAASGITFVKYTMGWYRQAPGKERELVAAISRSDGRTYYADSVKGRFTISRDNAKNTVYLQMNSLQPEDTEVYYCNAVYGVIGKGYNYWGQGTQVTVSS” here?
A: high polyreactivity

Q: Which “polyreactivity (PSR sort gate)” value does the source give for “QVQLVESGGGLLQAGGSLRLSCAASGITFYYNTMGWYRQAPGKERELVASISGGCSTYYADSVKGRFTISRDNAKNTVFLQMKSLIPEDTAVYYCNAQGSLFRGWFDYDYWGQGTQVTVSS” here?
A: low polyreactivity

Q: Which “polyreactivity (PSR sort gate)” value does the source give for “QVQLVESGGGLLQAGGSLRLSCAASGRICRYYAMGGYRQAPGKERELVAGIRTSGGRTYADSVKGRFTISRDYAKNTVYLQMNSLKPEDTAVYYCAAGRRTLSMYYWGQGTQVTVSS” here?
A: high polyreactivity

Q: Which “polyreactivity (PSR sort gate)” value does the source give for “QVQLVESGGGLLQAGGSLRLSCAASGRIFNINAMGWYRQAPGKERELVAAISSGDSTYYADSVKGRFTISRDNAKNTVYLQMNSLKPEDSAVDYCNKDLYIWGHGTQVTVSS” here?
A: low polyreactivity

Q: Which “polyreactivity (PSR sort gate)” value does the source give for “QVQLVESGGGLLQAGGSLRLSCAASGRIFYGYTMVRYRQAPGKERELVASITIRGSRTYYADSVKGRFTISRDNAKNTVYLQMISQKPEDTAVSYCAADFVPARTVHRYDYWGQGTQVTVSS” here?
A: low polyreactivity

Q: Which “polyreactivity (PSR sort gate)” value does the source give for “QVQLVESGGGLLQAGGSLRLSCAASGRIKDNGMGWYIKAPGKERELVAAITLSAGRTYYADSVKGRFTISRDNAKNTVYLQMNSLKPEDTAVYYCAAQAERYGYEYWGQGTQVTVSS” here?
A: low polyreactivity

Q: With “QVQLVESGGGLLQAGGSLRLSCAASGRILFSYAMGWYRQAPGKERELVATISSGGRTNYADSVKGRFTISRDNAKNTVYLQMNSLKPEDTAVYYCNTEYLVWYAYDYGGQGTQVTVSS” as the sequence, how does the “polyreactivity (PSR sort gate)” value read?
A: low polyreactivity

Q: Which “polyreactivity (PSR sort gate)” value does the source give for “QVQLVESGGGLLQAGGSLRLSCAASGRIYWNDMAWYRQAPGKERELVAAISWGGDRTYYADSVKGRFTISRDNAKNTVYLQMNSLKPEDTAVYYCNAPGYLTYDHSYDYWGQGTQVTVSS” here?
A: low polyreactivity

Q: With “QVQLVESGGGLLQAGGSLRLSCAASGRTFSYYAMGWYRQAPGKERELVAAISWRGGSTYYADSVKGRFTISRDNAKNTVYLQMNSLKPEDTAVYYCAALPRYALGEDYWGQGSQVTVSS” as the sequence, how does the “polyreactivity (PSR sort gate)” value read?
A: high polyreactivity

Q: For “QVQLVESGGGLLQAGGSLRLSCAASGRTFWWNAMGWYRQAPGKERELVAVISYSGGSTYYADSVKGRFTISRDNAKNTVYLQMNSLKPEDTAVYYCAADLYSHTGYYWGQGTQVTVSS”, which “polyreactivity (PSR sort gate)” value is on record?
A: high polyreactivity

Q: With “QVQLVESGGGLLQAGGSLRLSCAASGSIFPQYAMGWYRPAPGKERELVAAITWSGSRTRYADSVKGRFTISRDNAKNTVYLQMNSLKPEDTAVYYCNAYWGRSGYAGGYWGQGTQVTVSS” as the sequence, how does the “polyreactivity (PSR sort gate)” value read?
A: high polyreactivity

Q: For “QVQLVESGGGLLQAGGSLRLSCAASGSIFQYKAMGWYRQAPGKERELVAAINGGGSTYYADSVKGRFTISRDNEKNTVYLQMNSLKPEYTAVYYCAADGGAYYYRGPGKFGIEDSWGQGTQVTVSS”, which “polyreactivity (PSR sort gate)” value is on record?
A: low polyreactivity

Q: Which “polyreactivity (PSR sort gate)” value does the source give for “QVQLVESGGGLLQAGGSLRLSCAASGSIFYINAKGWYRQAPGKERELVAAITSDGSTYYADSVKGRFTISRDYANYTVYLQLNSLKPEYSAVYYCAADLTSDQYLYYWYWFSSWGQGTQGTVSS” here?
A: low polyreactivity

Q: With “QVQLVESGGGLLQAGGSLRLSCAASGSTFDSYAMGWYRQAPGKERELVAAITNGGSTYYADSVKGRFTISRDNAKNTVYLQMNSLKPEDTAVYYCATDDYLLDYLYDYWGQGTQVTVSS” as the sequence, how does the “polyreactivity (PSR sort gate)” value read?
A: low polyreactivity

Q: For “QVQLVESGGGLLQAGGSLRLSCAASGSTFGHYAMGWYRQAPGKERELVAAITWSGGSTYYADSVKGRFTISGDNAKNTVYLQMKSLKPEDTAVYDCAARFGGGAARHGYWGQGTQVTVSS”, which “polyreactivity (PSR sort gate)” value is on record?
A: high polyreactivity

Q: Which “polyreactivity (PSR sort gate)” value does the source give for “QVQLVESGGGLLQAGGSLRLSCAASGSTLRRYAMGWDRQAPGKERELVAAISGSGDSTYYADSVKGRFTISRDNAKNTVYLQMNSLKPEDTAVYYCNAVYAFNGYDYWGQGTQVTVSS” here?
A: low polyreactivity

Q: For “QVQLVESGGGLLQAGGSLRLSCAASGYTSSRYAMGWYRQAPGKESELLAAISGTGGSTNYADSVKGRFTISRDNAKNTVYLQMNRLKPEDSAVYYCATRSFGAGYVGVRYYYWGQATQVTVSS”, which “polyreactivity (PSR sort gate)” value is on record?
A: high polyreactivity

Q: For “QVQLVESGGGLLQAGGSLRLSCAASVSIFSIYAMGWYRQAPGKERELVAAITLGGGSTYYADSVKGRFTISRDNAKNTVYLQMNCLTPEDTAVYYCAASSVYGYSYWGQGTQVTVSS”, which “polyreactivity (PSR sort gate)” value is on record?
A: high polyreactivity

Q: Which “polyreactivity (PSR sort gate)” value does the source give for “QVQLVESGGGLLQAGGSLRLSCAATGITYDYYDMGWYRQAPGKERELVAAIRWSGTSKYYADSVKGRFTISRDNANNTVYIQMNSLKTEDSAVYYCAALAVGNDYRRYGYWGQGTQVTVSS” here?
A: high polyreactivity

Q: With “QVQLVESGGGLLQAGGSLRLSCADRRTLSFYAKGCSIQAPGKERELVAAISRSGGSTYYADSEKGRFTISRDNAKNTGKLQMNRLKPEDTAVYYFAARSSGGYDYWGQGTQVTVSS” as the sequence, how does the “polyreactivity (PSR sort gate)” value read?
A: high polyreactivity

Q: For “QVQLVESGGGLLQAGGSLRLSCADSGSTFSRYSMGWYRQAPGKEREFVAAISRSGASTYYADSVKGRFTISRDNEMNTVNLQMNSLKPEDTAVYYCNTRRWRFVKYGYWGQGTQVTVSS”, which “polyreactivity (PSR sort gate)” value is on record?
A: high polyreactivity

Q: With “QVQLVESGGGLLQAGGSLRLSCASSGLIFLGYTMGRYIQAPGKERELVAAISRRGGRTYYADSVKGLFTISRDNAKNTVYLLMNSLKPEDTAVYYCNADITSSGPKSDYWGQGTQVTVSS” as the sequence, how does the “polyreactivity (PSR sort gate)” value read?
A: high polyreactivity

Q: Which “polyreactivity (PSR sort gate)” value does the source give for “QVQLVESGGGLLQAGGSLRLSCASSGRIFRWNAMGWYRQAPGKERELVAAISARGGSTYYADSVKGRFTISRDNAKNTVYLQMNSLKPEDTAVYYCAKVSSRGFDYWGQGTQVTVSS” here?
A: high polyreactivity

Q: Which “polyreactivity (PSR sort gate)” value does the source give for “QVQLVESGGGLLQAGGSLRLSSAASGLTFAAYAMGWYRQAPGKEREFVAAITSSGGSTYYADSVKGRFTISRDNAKNSVYLQMNSLKPEDTAVYYCAAYYYDHYYWGQGTQVTVSS” here?
A: high polyreactivity

Q: Which “polyreactivity (PSR sort gate)” value does the source give for “QVQLVESGGGLLQAGGSLRVSCAASGRTFLRYAMGWSIKAPGKERELVAGIDSSGGNTYYADSVKGRFTISRDTAKKYVYLQINSLKPEDTAVYYCAPRRSCKYRGGYYWGQGTQVTVSS” here?
A: high polyreactivity

Q: Which “polyreactivity (PSR sort gate)” value does the source give for “QVQLVESGGGLLQAGRSLRLTCAASGRTFRAYAMGWYRQAPGKEMELVASISRRGGSTYYADSVKGRFTISRDNAKNSVYLQMNSLKPEDTAVSYCAASDKYLQYDYWGQGSQVTVSS” here?
A: high polyreactivity

Q: With “QVQLVESGGGLLQSGGSLRLSCAASGFIFRSYAMGWYRQAPGKEREFVASISSRGGTTYYADSVKGRFTISRDNAKKTVYLQMNRLKPEDTAVYYCAADYFRWAGWGYEYWGQGSQVTVSS” as the sequence, how does the “polyreactivity (PSR sort gate)” value read?
A: high polyreactivity

Q: With “QVQLVESGGGLQQAGGSLRLSCDASGITFRQYTMGWCRQAPGKERELVAAITSSGRTYYADSVKGRFTISRDNAKNTVYLHMNSLKPEDTAVYYCAAETYYFGYGYWGQGTQVTVSS” as the sequence, how does the “polyreactivity (PSR sort gate)” value read?
A: high polyreactivity

Q: Which “polyreactivity (PSR sort gate)” value does the source give for “QVQLVESGGGLVEAGGRLRLSCAAYGRIFYYNGMGCYRQAPGKERELVAAITSGGSTNYADSEKGRFTISRDNAKNNVYLQMKSVKPEDTAVSYCAADYYYYVAGVHFDYWGQGTQVTVSS” here?
A: low polyreactivity

Q: Which “polyreactivity (PSR sort gate)” value does the source give for “QVQLVESGGGLVEAGGSLRLSCAASASIFGLNAMGWYRQAPGKEREFVAAISWSDGSTYYADSVKGRFTISRDNAKNTVYLQMNSLKPEDTAVYYCSKATEYYAESDDYDYWGQGTQVTVSS” here?
A: low polyreactivity

Q: Which “polyreactivity (PSR sort gate)” value does the source give for “QVQLVESGGGLVEAGGSLRLSCAASGRTFSPNTMGWYRQAPGKEREFVAAITASGDSTYYADSVKGRFTISRDNAKNTVYLQMNSLKPEDTAVYYCATDSNWYWGFNYWGQGTQVTVSS” here?
A: low polyreactivity

Q: With “QVQLVESGGGLVEAGGSLRLSCAASGYIFKSYVMGWYRQAPGTERELVAAITWSGGSTYYADSVNGRFTISRDNAKNTVYLQMNSLNPEDTAVYYCAAYPRRYRTTYDYWGQGTQVTVSS” as the sequence, how does the “polyreactivity (PSR sort gate)” value read?
A: high polyreactivity

Q: With “QVQLVESGGGLVEAGGSLRLSCDASGRIFYSNAMGWSRQAPGKERELVATITRSSGITYYADSVKGRFTISRDNAKNTVYLQMNSLKPEDTAVYYCAAPWYYYGYWGQGTQVTVSS” as the sequence, how does the “polyreactivity (PSR sort gate)” value read?
A: high polyreactivity

Q: Which “polyreactivity (PSR sort gate)” value does the source give for “QVQLVESGGGLVHAGGCLRLSCAASGRTFAPYAMGWYRLAPGKERELVAAINSGDRTYYADSVKGRFTLSRDNAKNTVNLQINSLKPEDTSGYYCSSDALAGQYTWYKYDYWGQGSQVTVSS” here?
A: low polyreactivity

Q: For “QVQLVESGGGLVHAGGRLRLSCAASGSIFDYYAMGWSRPAPGKERELVADNTSGGSTNYADSVKGRFTISRDNAKNTVYLQMNSLKPEDTAVYYCATRIGYSDWPDGVWDLDDSEYYYWGQGTQVTVSS”, which “polyreactivity (PSR sort gate)” value is on record?
A: low polyreactivity

Q: With “QVQLVESGGGLVHAGGRLRLSCAASGSMFYPYAMGWYRQAPGKERELVAAISRSGGSTRYADSVKGRFTISRDHAQNTVYLQMNSLKPEDTAVYYCAVRVFYGVGLIGYYYWGQGSQVTVSS” as the sequence, how does the “polyreactivity (PSR sort gate)” value read?
A: high polyreactivity

Q: For “QVQLVESGGGLVHAGGSHRLSCAATGRIFDANARGGYRQAPGKERELVAVISSRGGSTYYADSVKGRFTISRDNAKNTVYLQMNSLKPEDTAVYYCAKGFSVAGYDYWGQGTQVTVSS”, which “polyreactivity (PSR sort gate)” value is on record?
A: low polyreactivity
